T1: yeast Snu71 (S. cerevisiae, UniProt P53207 1-620)
T1 construct: Snu71 of S. cerevisiae U1 snRNP; not modelled in the structure; source: endogenous, S. cerevisiae; co-purified in U1 snRNP through the TAP tag on U1A
T1 sequence (looked up): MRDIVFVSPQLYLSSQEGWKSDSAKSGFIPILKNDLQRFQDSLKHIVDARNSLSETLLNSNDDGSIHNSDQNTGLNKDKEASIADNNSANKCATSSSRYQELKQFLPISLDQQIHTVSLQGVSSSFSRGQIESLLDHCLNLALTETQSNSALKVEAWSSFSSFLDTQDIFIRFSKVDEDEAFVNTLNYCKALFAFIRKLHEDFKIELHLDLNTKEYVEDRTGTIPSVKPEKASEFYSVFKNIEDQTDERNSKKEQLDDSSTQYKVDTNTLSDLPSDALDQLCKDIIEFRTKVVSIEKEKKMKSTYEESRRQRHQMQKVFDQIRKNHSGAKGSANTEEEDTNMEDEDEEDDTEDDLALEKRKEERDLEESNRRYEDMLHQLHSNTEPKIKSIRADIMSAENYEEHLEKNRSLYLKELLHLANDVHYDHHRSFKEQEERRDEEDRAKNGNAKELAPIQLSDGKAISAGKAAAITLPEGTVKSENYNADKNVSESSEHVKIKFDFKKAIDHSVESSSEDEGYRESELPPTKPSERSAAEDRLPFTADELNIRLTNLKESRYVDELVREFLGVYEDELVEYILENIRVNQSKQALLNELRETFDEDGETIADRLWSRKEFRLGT

T2: yeast Prp39 (S. cerevisiae, UniProt P39682 1-629)
T2 construct: Prp39 of S. cerevisiae, 629 residues; C-terminal TPR domain 326-552 and C-terminal region 561-627 built, 43-285 docked as homology model; source: endogenous, S. cerevisiae; co-purified in U1 snRNP through the TAP tag on U1A
T2 sequence (looked up): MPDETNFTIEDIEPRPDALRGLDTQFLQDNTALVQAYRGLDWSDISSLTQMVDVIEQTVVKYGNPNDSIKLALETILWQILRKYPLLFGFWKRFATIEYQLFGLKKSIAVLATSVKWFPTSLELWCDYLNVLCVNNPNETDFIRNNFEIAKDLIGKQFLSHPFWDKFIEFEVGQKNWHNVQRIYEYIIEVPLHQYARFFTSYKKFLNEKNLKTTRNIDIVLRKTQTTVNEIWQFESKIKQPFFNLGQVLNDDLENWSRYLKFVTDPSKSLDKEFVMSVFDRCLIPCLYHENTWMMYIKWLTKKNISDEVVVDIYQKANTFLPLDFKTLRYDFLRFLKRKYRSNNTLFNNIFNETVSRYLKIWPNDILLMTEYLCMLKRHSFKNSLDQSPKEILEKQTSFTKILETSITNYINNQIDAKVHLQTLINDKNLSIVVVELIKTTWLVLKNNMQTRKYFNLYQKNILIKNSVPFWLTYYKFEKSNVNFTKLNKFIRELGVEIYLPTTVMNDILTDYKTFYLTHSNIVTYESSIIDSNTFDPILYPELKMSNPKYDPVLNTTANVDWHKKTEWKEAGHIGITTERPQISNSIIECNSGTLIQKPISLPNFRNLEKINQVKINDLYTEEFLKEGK

T3: yeast U1-70K (S. cerevisiae, UniProt Q00916 1-300)
T3 construct: U1-70K of S. cerevisiae U1 snRNP; residues 3-91 built, 94-188 (RRM) docked as homology model; source: endogenous, S. cerevisiae; co-purified in U1 snRNP through the TAP tag on U1A
T3 sequence (looked up): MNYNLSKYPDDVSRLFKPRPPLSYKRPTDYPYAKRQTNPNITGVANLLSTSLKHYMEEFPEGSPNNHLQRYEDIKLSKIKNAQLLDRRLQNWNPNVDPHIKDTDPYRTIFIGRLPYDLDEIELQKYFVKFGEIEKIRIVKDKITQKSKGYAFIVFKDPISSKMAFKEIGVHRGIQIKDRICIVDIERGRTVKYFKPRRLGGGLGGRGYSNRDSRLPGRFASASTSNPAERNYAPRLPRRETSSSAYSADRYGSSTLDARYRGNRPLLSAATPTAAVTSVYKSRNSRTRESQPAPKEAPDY

B1: yeast Prp40 (natural protein, S. cerevisiae, UniProt P33203 1-583, looked up)
chain: MSIWKEAKDASGRIYYYNTLTKKSTWEKPKELISQEELLLRENGWKAAKTADGKVYYYNPTTRETSWTIPAFEKKVEPIAEQKHDTVSHAQVNGNRIALTAGEKQEPGRTINEEESQYANNSKLLNVRRRTKEEAEKEFITMLKENQVDSTWSFSRIISELGTRDPRYWMVDDDPLWKKEMFEKYLSNRSADQLLKEHNETSKFKEAFQKMLQNNSHIKYYTRWPTAKRLIADEPIYKHSVVNEKTKRQTFQDYIDTLIDTQKESKKKLKTQALKELREYLNGIITTSSSETFITWQQLLNHYVFDKSKRYMANRHFKVLTHEDVLNEYLKIVNTIENDLQNKLNELRLRNYTRDRIARDNFKSLLREVPIKIKANTRWSDIYPHIKSDPRFLHMLGRNGSSCLDLFLDFVDEQRMYIFAQRSIAQQTLIDQNFEWNDADSDEITKQNIEKVLENDRKFDKVDKEDISLIVDGLIKQRNEKIQQKLQNERRILEQKKHYFWLLLQRTYTKTGKPKPSTWDLASKELGESLEYKALGDEDNIRRQIFEDFKPESSAPTAESATANLTLTASKKRHLTPAVELDY
notes: Prp40 of S. cerevisiae U1 snRNP; not modelled in the structure; source: endogenous, S. cerevisiae; co-purified in U1 snRNP through the TAP tag on U1A
B2: yeast Snu56 (natural protein, S. cerevisiae, UniProt Q03782 1-492, looked up)
chain: MRPRRRGLAYHHTKPKGQLSQGHYPTTSNDGQRRKVGNSEAFQSFDIWKNLDRIRSTKKNAGQFIKGSLLILPMRTEDKQQFDECMDELHKYISKDILRCYPQKEQKDEGMLFYIVLKDFNILDSCFVLSVLLAFQKRLWMAPSEKSYFRVPKNINLTGSFYLPKNIETGRGHIITSYRREQPSSSIVEVGFNVVPDFQQFQVKACHVSKFMNELSNFFSQVEFGKCEANVINYFKREYNRTYSQISLALYELPLIGDGLFDIKSYISKTRPIIETSKAQMIKHISEMKAYNEISGLQGDQFPRQQRPLSNSPSSNSISSSQTIEAGATSYQTQPQRHAVNKPSNVLNSSNRHSGPKTFEDGRYSEGNKPGFMTQDEIKQHCIGTIKASMDAVKKKSSYQILKTYVRCPRQNYIDIVYQNLNDLRSKTNCNIVVLNLNNLHESQMWLESLNTTNYTIFAQAPHPSTIRVISIGGVGEYIVKALELILNILEH
notes: Snu56 of S. cerevisiae, 492 residues; N-terminal domain 47-254 and long helix 255-303 modelled; source: endogenous, S. cerevisiae; co-purified in U1 snRNP through the TAP tag on U1A
B3: yeast Nam8 (natural protein, S. cerevisiae, UniProt Q00539 1-523, looked up)
chain: MSYKQTTYYPSRGNLVRNDSSPYTNTISSETNNSSTSVLSLQGASNVSLGTTGNQLYMGDLDPTWDKNTVRQIWASLGEANINVRMMWNNTLNNGSRSSMGPKNNQGYCFVDFPSSTHAANALLKNGMLIPNFPNKKLKLNWATSSYSNSNNSLNNVKSGNNCSIFVGDLAPNVTESQLFELFINRYASTSHAKIVHDQVTGMSKGYGFVKFTNSDEQQLALSEMQGVFLNGRAIKVGPTSGQQQHVSGNNDYNRSSSSLNNENVDSRFLSKGQSFLSNGNNNMGFKRNHMSQFIYPVQQQPSLNHFTDPNNTTVFIGGLSSLVTEDELRAYFQPFGTIVYVKIPVGKCCGFVQYVDRLSAEAAIAGMQGFPIANSRVRLSWGRSAKQTALLQQAMLSNSLQVQQQQPGLQQPNYGYIPSSTCEAPVLPDNNVSSTMLPGCQILNYSNPYANANGLGSNNFSFYSNNNATNTQATSLLADTSSMDLSGTGGQQVIMQGSEAVVNSTNAMLNRLEQGSNGFMFA
notes: Nam8 of S. cerevisiae, 523 residues; inter-RRM linker 289-302 and RRM3 303-383 and C-terminal tail modelled; source: endogenous, S. cerevisiae; co-purified in U1 snRNP through the TAP tag on U1A
B4: yeast SmG (natural protein, S. cerevisiae, UniProt P40204 1-77, looked up)
chain: MVSTPELKKYMDKKILLNINGSRKVAGILRGYDIFLNVVLDDAMEINGEDPANNHQLGLQTVIRGNSIISLEALDAI
notes: SmG of S. cerevisiae, member of the Sm ring of U1 snRNP; source: endogenous, S. cerevisiae; co-purified in U1 snRNP through the TAP tag on U1A
B5: yeast Prp42 (natural protein, S. cerevisiae, UniProt Q03776 1-544, looked up)
chain: MDKYTALIHDENFSTLTLNVSRYPKSLAYWEKLLNYIVKASAPICKSTEPQLLKLIRCTYSSMLNEFPYLENYYIDFALLEYKLGNVSMSHKIFQRGLQAFNQRSLLLWTSYLKFCNNVISHQKQLFKKYETAEEYVGLHFFSGEFWDLYLEQISSRCTSSKKYWNVLRKILEIPLHSFSKFYALWLQRIDDIMDLKQLSQLTSKDELLKKLKIDINYSGRKGPYLQDAKKKLKKITKEMYMVVQYQVLEIYSIFESKIYINYYTSPETLVSSDEIETWIKYLDYTITLQTDSLTHLNFQRALLPLAHYDLVWIKYSKWLINSKNDLLGAKNVLLMGLKFSLKKTEIIKLLYSVICKLNEYVLLRNLLEKIESSYSDNVENVDDFEIFWDYLQFKTFCQNSLYSSRYSDSQSNGLLNKELFDKVWKRLSCKEKKSGQEILLNNLVQFYSKDTVEFVEKNIFQKIIEFGWEYYLQNGMFWNCYCRLIYFDTSRSYLDKRQYIVRKIWPQIDKKFAQSVLPSLTEFCESYFPEEMDTLEEMFTEEP
notes: Prp42 of S. cerevisiae, 544 residues; residues 2-540 modelled; source: endogenous, S. cerevisiae; co-purified in U1 snRNP through the TAP tag on U1A
B6: yeast U1C (natural protein, S. cerevisiae, UniProt Q05900 1-231, looked up)
chain: MTRYYCEYCHSYLTHDTLSVRKSHLVGKNHLRITADYYRNKARDIINKHNHKRRHIGKRGRKERENSSQNETLKVTCLSNKEKRHIMHVKKMNQKELAQTSIDTLKLLYDGSPGYSKVFVDANRFDIGDLVKASKLPQRANEKSAHHSFKQTSRSRDETCESNPFPRLNNPKKLEPPKILSQWSNTIPKTSIFYSVDILQTTIKESKKRMHSDGIRKPSSANGYKRRRYGN
notes: U1C of S. cerevisiae U1 snRNP, 231 residues; NTD residues 1-48; residues 3-47 and 48-195 modelled; also called Yhc1; source: endogenous, S. cerevisiae; co-purified in U1 snRNP through the TAP tag on U1A

Columns and labels:
Conditions in all cases: both partners purified
yeast Snu71 = molecular target: T1, yeast Snu71; assay: cross-linking; purified yeast U1 snRNP cross-linked with 100 uM BS3, 30 min, room temperature; trypsin digest, mass spectrometry
yeast Prp42 = molecular target: B5; assay: cryo-EM structure; natively purified yeast U1 snRNP, 3.6 Å overall resolution
yeast Nam8 = molecular target: B3; assay: as above
yeast Prp39 = molecular target: T2, yeast Prp39; assay: as above
yeast U1-70K = molecular target: T3, yeast U1-70K; assay: as above

Binder | binding result (yeast Snu71) | binding result (yeast Prp42) | binding result (yeast Nam8) | binding result (yeast Prp39) | binding result (yeast U1-70K)
B1 | binds |  |  |  | 
B2 | binds | binds | binds |  | 
B3 |  | binds |  | binds | 
B4 |  | binds |  |  | 
B5 | binds |  |  | binds | 
B6 |  | binds | binds |  | binds

Source: article PMC5648754, “CryoEM structure of Saccharomyces cerevisiae U1 snRNP offers insight into alternative splicing” (Nature Communications, 2017)
